The assay addresses T1, human DUBA polypeptide (human, UniProt Q96G74 1-571).
T1 construct: Used for endogenous DUBA of HEK293 and TLR3/293 cells and for human DUBA in transfected cells (Western blot with the hamster antibodies); also called OTUD5; OTU domain containing 5
T1 sequence: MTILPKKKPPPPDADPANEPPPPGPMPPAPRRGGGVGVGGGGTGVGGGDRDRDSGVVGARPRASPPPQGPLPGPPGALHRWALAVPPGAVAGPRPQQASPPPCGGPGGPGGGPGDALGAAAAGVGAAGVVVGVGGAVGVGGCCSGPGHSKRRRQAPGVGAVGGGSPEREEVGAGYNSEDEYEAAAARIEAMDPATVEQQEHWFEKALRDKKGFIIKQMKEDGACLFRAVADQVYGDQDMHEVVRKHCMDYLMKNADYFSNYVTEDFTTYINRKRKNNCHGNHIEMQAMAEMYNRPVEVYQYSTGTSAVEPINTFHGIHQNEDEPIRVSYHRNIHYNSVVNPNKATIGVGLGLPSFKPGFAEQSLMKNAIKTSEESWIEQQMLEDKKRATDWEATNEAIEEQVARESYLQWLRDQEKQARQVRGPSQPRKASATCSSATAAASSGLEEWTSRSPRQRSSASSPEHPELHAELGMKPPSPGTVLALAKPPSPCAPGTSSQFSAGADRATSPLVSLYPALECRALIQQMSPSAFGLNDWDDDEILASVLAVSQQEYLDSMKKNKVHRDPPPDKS
Kind of assay: anti-DUBA immunoprecipitation from TLR3/293 lysates at 0, 60 and 180 minutes, anti-TRAF3 Western blot.

B1: endogenous TRAF3 (enzyme, UniProt Q13114 1-568, looked up)
chain: MESSKKMDSPGALQTNPPLKLHTDRSAGTPVFVPEQGGYKEKFVKTVEDKYKCEKCHLVLCSPKQTECGHRFCESCMAALLSSSSPKCTACQESIVKDKVFKDNCCKREILALQIYCRNESRGCAEQLMLGHLLVHLKNDCHFEELPCVRPDCKEKVLRKDLRDHVEKACKYREATCSHCKSQVPMIALQKHEDTDCPCVVVSCPHKCSVQTLLRSELSAHLSECVNAPSTCSFKRYGCVFQGTNQQIKAHEASSAVQHVNLLKEWSNSLEKKVSLLQNESVEKNKSIQSLHNQICSFEIEIERQKEMLRNNESKILHLQRVIDSQAEKLKELDKEIRPFRQNWEEADSMKSSVESLQNRVTELESVDKSAGQVARNTGLLESQLSRHDQMLSVHDIRLADMDLRFQVLETASYNGVLIWKIRDYKRRKQEAVMGKTLSLYSQPFYTGYFGYKMCARVYLNGDGMGKGTHLSLFFVIMRGEYDALLPWPFKQKVTLMLMDQGSSRRHLGDAFKPDPNSSSFKKPTGEMNIASGCPVFVAQTVLENGTYIKDDTIFIKVIVDTSDLPDP
notes: RING finger-type ubiquitin ligase; also called TNF receptor-associated factor (TRAF3)
As to B1, the binding result is given as “binds”.

The values are drawn from WO2008121813A2 (dated 2009).
